{
  "source": "IntAct's records for PubMed 23918937",
  "parents": {"B1": {"name": "Protein maternal effect lethal 26 (Caenorhabditis elegans), Q94420 (parent)", "chain": "MEPRIDGGVFIGGIGNSGNEMCSNGVPALGVSSQTEIKVEKVQHTWTVKNFSHCYQEYLENFVYLQRGDEQLTWSIKIYPKGNGENNKDFVFLCLNRVINNNVKAGKIGFKSQFKLRTAENKDIEMRIHPNPSHSDYVSYIKRDVLFPQIMPRDMIIVNVEIDVAVETITTTNEPIQFEPTNSEQQLIEDYQRLFSQELLCDFAINVNGKIIRAHKAVLAARSPVFNAMLTHQDTDEAKSSMMYINDMDYDVIYEMVYYIYCGRCNKDITDMATALLIAADKYRLEELKSHCEKYLVENINIENACSLLIIGDLYSAPKLRKRAVTYILARPKNVTGTPGWEDILKGHPNLITDIFSQIDRQSSTGATSSVSNLPGVPMDIPGITGNIVPPPSGL", "partner": "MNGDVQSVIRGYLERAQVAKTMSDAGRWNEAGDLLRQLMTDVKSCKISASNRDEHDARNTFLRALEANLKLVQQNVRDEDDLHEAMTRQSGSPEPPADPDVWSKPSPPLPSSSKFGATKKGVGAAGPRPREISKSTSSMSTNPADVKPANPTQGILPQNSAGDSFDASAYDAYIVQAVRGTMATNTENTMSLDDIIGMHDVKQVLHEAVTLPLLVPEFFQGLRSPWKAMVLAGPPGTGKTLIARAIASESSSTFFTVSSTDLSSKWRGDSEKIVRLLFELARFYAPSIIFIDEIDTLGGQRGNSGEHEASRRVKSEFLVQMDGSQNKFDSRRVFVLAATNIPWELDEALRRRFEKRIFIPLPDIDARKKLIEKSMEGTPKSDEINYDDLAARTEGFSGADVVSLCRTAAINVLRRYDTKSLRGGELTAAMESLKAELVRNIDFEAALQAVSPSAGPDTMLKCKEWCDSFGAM"}, "B2": {"name": "Protein maternal effect lethal 26 (Caenorhabditis elegans), Q94420 (parent)", "chain": "B1 chain"}, "B3": {"name": "Meiotic spindle formation protein mei-1 (Caenorhabditis elegans), P34808 (parent)", "chain": "B1 partner", "partner": "B1 chain"}},
  "data": [
    {"variants_of": "B1", "settings": "with ktna1_caeel mei-1, P34808", "values": [
      {"variant": "MEPRIDGGVFIGGIGNSGNEMCSNGVPALGVSSQTEIKVEKVQHTWTVKNFSHCYQEYLENFVYLQRGDEQLTWSIKIYPKGNGENNKDFVFLYLNRVINNNVKAGKIGFKSQFKLRTAENKDIEMRIHPNPSHSDYVSYIKRDVLFPQIMPRDMIIVNVEIDVAVETITTTNEPIQFEPTNSEQQLIEDYQRLFSQELLCDFAINVNGKIIRAHKAVLAARSPVFNAMLTHQDTDEAKSSMMYINDMDYDVIYEMVYYIYCGRCNKDITDMATALLIAADKYRLEELKSHCEKYLVENINIENACSLLIIGDLYSAPKLRKRAVTYILARPKNVTGTPGWEDILKGHPNLITDIFSQIDRQSSTGATSSVSNLPGVPMDIPGITGNIVPPPSGL", "note": "[C94Y]", "effect of a mutation on the interaction": "disrupting interaction strength"}
    ]},
    {"variants_of": "B2", "settings": "with pp4r1_caeel ppfr-1, G5ECH5", "values": [
      {"variant": "MEPRIDGGVFIGGIGNSGNEMCSNGVPALGVSSQTEIKVEKVQHTWTVKNFSHCYQEYLENFVYLQRGDEQLTWSIKIYPKGNGENNKDFVFLYLNRVINNNVKAGKIGFKSQFKLRTAENKDIEMRIHPNPSHSDYVSYIKRDVLFPQIMPRDMIIVNVEIDVAVETITTTNEPIQFEPTNSEQQLIEDYQRLFSQELLCDFAINVNGKIIRAHKAVLAARSPVFNAMLTHQDTDEAKSSMMYINDMDYDVIYEMVYYIYCGRCNKDITDMATALLIAADKYRLEELKSHCEKYLVENINIENACSLLIIGDLYSAPKLRKRAVTYILARPKNVTGTPGWEDILKGHPNLITDIFSQIDRQSSTGATSSVSNLPGVPMDIPGITGNIVPPPSGL", "note": "[C94Y]", "effect of a mutation on the interaction": "disrupting interaction strength"}
    ]},
    {"variants_of": "B3", "settings": "with mel26_caeel mel-26, Q94420", "values": [
      {"variant": "MNGDVQSVIRGYLERAQVAKTMSDAGRWNEAGDLLRQLMTDVKSCKISASNRDEHDARNTFLRALEANLKLVQQNVRDEDDLHEAMTRQSGAPEPPADPDVWSKPSPPLPSSSKFGATKKGVGAAGPRPREISKSTSSMSTNPADVKPANPTQGILPQNSAGDSFDASAYDAYIVQAVRGTMATNTENTMSLDDIIGMHDVKQVLHEAVTLPLLVPEFFQGLRSPWKAMVLAGPPGTGKTLIARAIASESSSTFFTVSSTDLSSKWRGDSEKIVRLLFELARFYAPSIIFIDEIDTLGGQRGNSGEHEASRRVKSEFLVQMDGSQNKFDSRRVFVLAATNIPWELDEALRRRFEKRIFIPLPDIDARKKLIEKSMEGTPKSDEINYDDLAARTEGFSGADVVSLCRTAAINVLRRYDTKSLRGGELTAAMESLKAELVRNIDFEAALQAVSPSAGPDTMLKCKEWCDSFGAM", "note": "[S92A]", "effect of a mutation on the interaction": "disrupting interaction strength"}
    ]}
  ]
}
